Assay results from patent US20070232789A1 (UNIVERSITY OF MARYLAND BALTIMORE, published 2007).

Legend:
[1] = biological target: T1, low-density lipoprotein receptor-related protein (LRP), purified (human, UniProt Q07954 20-4544); test: heterologous displacement of ^125I-fVIII (1 nM) from immobilised LRP; HCh as unlabeled competitor
T1 construct: mature; also called low density lipoprotein receptor-related protein/α2-macroglobulin receptor; LRP receptor
Method: (§1) Solid-phase binding assays. […] Microtiter wells were coated with purified LRP or BSA (3 μg/ml) in 50 mM Tris, 0.15 M NaCl, pH 8.0, for 16 h and then blocked with 3% BSA in TBS. […] The radioactivity bound to the wells was counted using a γ-counter (Pharmacia). Affinity constants were derived from homologous and heterologous displacement data using the computer program LIGAND (Munson, P T and Rodbard, D. Anal. Biochem. 107:220-239 (1980)).

[2] = biological target: T1, low-density lipoprotein …; test: homologous displacement of ^125I-A2 (5 nM) by unlabeled A2 on LRP-coated wells, LIGAND fit
[3] = biological target: LRP on mouse embryonic fibroblasts (MEF cells) (mouse, UniProt Q91ZX7 20-4545); test: cell-based or functional assay
[4] = biological target: T1, low-density lipoprotein …; test: heterologous displacement of ^125I-fVIII (1 nM) from immobilised LRP; isolated A2 domain as unlabeled competitor
Method: as §1

T1 sequence (Q07954 20-4544, form in doubt): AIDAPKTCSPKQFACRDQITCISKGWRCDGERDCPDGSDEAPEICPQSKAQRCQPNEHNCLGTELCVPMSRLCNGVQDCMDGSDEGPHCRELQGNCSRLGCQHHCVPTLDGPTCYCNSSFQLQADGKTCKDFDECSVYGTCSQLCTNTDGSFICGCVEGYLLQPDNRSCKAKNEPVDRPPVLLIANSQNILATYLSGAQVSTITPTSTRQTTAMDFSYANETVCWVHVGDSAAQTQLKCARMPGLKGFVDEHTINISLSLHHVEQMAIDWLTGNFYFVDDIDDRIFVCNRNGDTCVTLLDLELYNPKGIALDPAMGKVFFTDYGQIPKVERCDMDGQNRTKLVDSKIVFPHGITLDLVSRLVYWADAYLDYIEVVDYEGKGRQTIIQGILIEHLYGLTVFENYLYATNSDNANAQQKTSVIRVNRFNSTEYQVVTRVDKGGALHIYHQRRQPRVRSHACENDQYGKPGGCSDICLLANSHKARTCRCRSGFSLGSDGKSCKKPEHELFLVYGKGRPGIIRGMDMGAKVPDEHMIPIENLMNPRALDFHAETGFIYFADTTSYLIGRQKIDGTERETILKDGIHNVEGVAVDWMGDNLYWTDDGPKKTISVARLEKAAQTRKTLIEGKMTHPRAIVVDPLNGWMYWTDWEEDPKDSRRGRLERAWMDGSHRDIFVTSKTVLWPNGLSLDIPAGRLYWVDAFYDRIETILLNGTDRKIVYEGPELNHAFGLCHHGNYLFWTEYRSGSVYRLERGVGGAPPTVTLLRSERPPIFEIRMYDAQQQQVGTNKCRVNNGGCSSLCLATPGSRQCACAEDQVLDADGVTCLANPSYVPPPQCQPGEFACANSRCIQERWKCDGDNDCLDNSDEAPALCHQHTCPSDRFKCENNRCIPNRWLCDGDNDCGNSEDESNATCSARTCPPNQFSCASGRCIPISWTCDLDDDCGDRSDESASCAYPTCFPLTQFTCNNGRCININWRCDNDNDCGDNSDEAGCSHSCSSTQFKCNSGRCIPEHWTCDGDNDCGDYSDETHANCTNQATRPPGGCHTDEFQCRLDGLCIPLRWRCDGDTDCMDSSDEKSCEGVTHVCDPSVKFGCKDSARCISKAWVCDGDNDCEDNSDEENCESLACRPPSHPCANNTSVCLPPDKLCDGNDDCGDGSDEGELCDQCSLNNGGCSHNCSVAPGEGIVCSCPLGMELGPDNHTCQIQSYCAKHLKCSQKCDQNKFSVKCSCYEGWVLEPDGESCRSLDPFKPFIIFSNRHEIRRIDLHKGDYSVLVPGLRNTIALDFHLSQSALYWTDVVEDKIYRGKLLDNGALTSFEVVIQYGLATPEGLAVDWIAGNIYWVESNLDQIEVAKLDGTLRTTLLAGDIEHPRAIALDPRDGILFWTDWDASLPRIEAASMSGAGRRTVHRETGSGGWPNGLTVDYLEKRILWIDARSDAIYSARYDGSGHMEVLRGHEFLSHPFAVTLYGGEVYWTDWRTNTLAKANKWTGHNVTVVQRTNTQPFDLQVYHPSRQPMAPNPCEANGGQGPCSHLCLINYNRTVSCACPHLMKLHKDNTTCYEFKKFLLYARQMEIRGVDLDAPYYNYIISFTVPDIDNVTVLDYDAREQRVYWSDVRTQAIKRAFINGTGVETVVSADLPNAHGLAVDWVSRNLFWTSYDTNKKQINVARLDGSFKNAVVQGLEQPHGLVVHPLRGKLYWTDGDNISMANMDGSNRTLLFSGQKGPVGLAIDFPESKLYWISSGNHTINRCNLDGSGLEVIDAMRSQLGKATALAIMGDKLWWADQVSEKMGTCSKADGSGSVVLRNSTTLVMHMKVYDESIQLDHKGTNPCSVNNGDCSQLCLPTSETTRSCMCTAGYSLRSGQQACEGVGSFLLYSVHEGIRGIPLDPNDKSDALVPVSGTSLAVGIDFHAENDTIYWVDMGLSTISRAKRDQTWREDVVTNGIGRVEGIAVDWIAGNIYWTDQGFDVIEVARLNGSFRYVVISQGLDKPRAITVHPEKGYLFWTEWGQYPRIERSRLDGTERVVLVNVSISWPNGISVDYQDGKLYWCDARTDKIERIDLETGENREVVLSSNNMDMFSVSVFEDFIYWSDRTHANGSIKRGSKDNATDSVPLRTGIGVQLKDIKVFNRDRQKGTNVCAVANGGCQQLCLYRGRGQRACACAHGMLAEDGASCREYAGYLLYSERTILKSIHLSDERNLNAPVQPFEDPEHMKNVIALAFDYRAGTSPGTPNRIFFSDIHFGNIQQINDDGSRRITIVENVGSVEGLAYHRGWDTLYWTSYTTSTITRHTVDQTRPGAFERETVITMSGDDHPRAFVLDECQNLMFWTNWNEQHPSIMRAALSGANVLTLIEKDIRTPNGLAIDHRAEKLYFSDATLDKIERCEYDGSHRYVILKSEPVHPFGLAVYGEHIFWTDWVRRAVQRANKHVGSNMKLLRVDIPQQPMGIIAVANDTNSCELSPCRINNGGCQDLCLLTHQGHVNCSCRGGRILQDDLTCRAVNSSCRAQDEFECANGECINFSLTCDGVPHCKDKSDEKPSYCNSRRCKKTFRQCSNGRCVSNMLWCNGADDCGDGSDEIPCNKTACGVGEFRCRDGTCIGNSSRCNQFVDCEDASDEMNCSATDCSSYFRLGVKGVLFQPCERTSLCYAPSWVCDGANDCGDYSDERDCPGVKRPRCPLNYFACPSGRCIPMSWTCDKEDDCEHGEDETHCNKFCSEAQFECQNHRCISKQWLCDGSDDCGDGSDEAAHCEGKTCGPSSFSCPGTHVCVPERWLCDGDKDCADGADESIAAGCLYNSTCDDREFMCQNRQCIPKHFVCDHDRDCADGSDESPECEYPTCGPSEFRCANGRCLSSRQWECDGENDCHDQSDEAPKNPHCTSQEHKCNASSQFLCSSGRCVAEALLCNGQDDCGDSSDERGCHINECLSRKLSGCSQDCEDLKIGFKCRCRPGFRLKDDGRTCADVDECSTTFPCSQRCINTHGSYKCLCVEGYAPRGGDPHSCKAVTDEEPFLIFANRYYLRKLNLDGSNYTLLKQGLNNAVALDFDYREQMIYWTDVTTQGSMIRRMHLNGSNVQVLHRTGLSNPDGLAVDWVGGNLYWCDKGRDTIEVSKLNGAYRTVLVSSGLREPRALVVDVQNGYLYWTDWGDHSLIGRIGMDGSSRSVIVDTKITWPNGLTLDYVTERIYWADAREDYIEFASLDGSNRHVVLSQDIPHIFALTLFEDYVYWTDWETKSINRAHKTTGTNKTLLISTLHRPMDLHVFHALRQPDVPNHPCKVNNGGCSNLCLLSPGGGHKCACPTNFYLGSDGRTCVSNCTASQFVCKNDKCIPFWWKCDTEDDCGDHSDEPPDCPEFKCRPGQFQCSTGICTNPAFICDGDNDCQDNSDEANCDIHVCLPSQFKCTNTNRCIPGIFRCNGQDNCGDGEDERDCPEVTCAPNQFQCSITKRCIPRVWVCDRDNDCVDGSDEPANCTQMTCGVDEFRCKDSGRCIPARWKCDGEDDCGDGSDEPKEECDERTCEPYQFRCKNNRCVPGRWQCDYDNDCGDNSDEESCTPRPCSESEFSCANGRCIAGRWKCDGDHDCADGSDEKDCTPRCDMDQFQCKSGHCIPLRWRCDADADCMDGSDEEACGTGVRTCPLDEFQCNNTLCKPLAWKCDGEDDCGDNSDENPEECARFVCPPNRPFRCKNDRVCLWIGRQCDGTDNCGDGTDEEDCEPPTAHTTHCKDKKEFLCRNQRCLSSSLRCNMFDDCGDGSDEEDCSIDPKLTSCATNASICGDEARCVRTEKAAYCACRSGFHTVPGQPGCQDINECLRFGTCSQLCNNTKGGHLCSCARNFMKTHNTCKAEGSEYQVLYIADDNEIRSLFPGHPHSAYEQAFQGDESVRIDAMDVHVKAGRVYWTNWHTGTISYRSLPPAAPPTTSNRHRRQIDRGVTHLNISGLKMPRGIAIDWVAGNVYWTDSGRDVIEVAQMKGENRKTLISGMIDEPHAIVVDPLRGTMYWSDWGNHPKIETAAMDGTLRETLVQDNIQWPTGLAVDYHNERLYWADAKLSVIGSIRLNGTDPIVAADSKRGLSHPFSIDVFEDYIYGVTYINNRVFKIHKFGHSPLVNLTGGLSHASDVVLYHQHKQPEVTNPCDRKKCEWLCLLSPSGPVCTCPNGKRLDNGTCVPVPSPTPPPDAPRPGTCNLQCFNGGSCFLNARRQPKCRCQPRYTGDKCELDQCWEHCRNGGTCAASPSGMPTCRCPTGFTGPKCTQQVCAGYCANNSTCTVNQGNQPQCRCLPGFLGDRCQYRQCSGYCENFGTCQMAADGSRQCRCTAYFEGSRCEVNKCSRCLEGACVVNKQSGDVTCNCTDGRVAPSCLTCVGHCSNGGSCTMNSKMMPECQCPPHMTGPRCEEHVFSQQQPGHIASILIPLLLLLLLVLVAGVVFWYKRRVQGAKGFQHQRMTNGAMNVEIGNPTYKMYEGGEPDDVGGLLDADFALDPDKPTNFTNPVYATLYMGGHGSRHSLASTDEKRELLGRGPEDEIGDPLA

Row | Ki [1] [nM] | Kd [2] [nM] | inhibition of degradation of ^125I-fVIII/vWf complex by MEF cells by a 1000-fold excess of A2 [3] [%] | inhibition of internalization of ^125I-fVIII/vWf complex by MEF cells by a 1000-fold excess of A2 [3] [%] | Ki [4] [nM] | Binder
1 | 120 | – | – | – | – | heavy chain of factor VIII (HCh) (other, Prepared from plasma-derived fVIII) ATRRYYLGAVELSWDYMQSDLGELPVDARFPPRVPKSFPFNTSVVYKKTLFVEFTDHLFNIAKPRPPWMGLLGPTIQAEVYDTVVITLKNMASHPVSLHAVGVSYWKASEGAEYDDQTSQREKEDDKVFPGGSHTYVWQVLKENGPMASDPLCLTYSYLSHVDLVKDLNSGLIGALLVCREGSLAKEKTQTLHKFILLFAVFDEGKSWHSETKNSLMQDRDAASARAWPKMHTVNGYVNRSLPGLIGCHRKSVYWHVIGMGTTPEVHSIFLEGHTFLVRNHRQASLEISPITFLTAQTLLMDLGQFLLFCHISSHQHDGMEAYVKVDSCPEEPQLRMKNNEEAEDYDDDLTDSEMDVVRFDDDNSPSFIQIRSVAKKHPKTWVHYIAAEEEDWDYAPLVLAPDDRSYKSQYLNNGPQRIGRKYKKVRFMAYTDETFKTREAIQHESGILGPLLYGEVGDTLLIIFKNQASRPYNIYPHGITDVRPLYSRRLPKGVKHLKDFPILPGEIFKYKWTVTVEDGPTKSDPRCLTRYYSSFVNMERDLASGLIGPLLICYKESVDQRGNQIMSDKRNVILFSVFDENRSWYLTENIQRFLPNPAGVQLEDPEFQASNIMHSINGYVFDSLQLSVCLHEVAYWYILSIGAQTDFLSVFFSGYTFKHKMVYEDTLTLFPFSGETVFMSMENPGLWILGCHNSDFRNRGMTALLKVSSCDKNTGDYYEDSYEDISAYLLSKNNAIEPRSFSQNSRHRSTRQKQFNATTIPENDIEKTDPWFAHRTPMPKIQNVSSSDLLMLLRQSPTPHGLSLSDLQEAKYETFSDDPSPGAIDSNNSLSEMTHFRPQLHHSGDMVFTPESGLQLRLNEKLGTTAATELKKLDFKVSSTSNNLISTIPSDNLAAGTDNTSSLGPPSMPVHYDSQLDTTLFGKKSSPLTESGGPLSLSEENNDSKLLESGLMNSQESSWGKNVSSTESGRLFKGKRAHGPALLTKDNALFKVSISLLKTNKTSNNSATNRKTHIDGPSLLIENSPSVWQNILESDTEFKKVTPLIHDRMLMDKNATALRLNHMSNKTTSSKNMEMVQQKKEGPIPPDAQNPDMSFFKMLFLPESARWIQRTHGKNSLNSGQGPSPKQLVSLGPEKSVEGQNFLSEKNKVVVGKGEFTKDVGLKEMVFPSSRNLFLTNLDNLHENNTHNQEKKIQEEIEKKETLIQENVVLPQIHTVTGTKNFMKNLFLLSTRQNVEGSYDGAYAPVLQDFRSLNDSTNRTKKHTAHFSKKGEEENLEGLGNQTKQIVEKYACTTRISPNTSQQNFVTQRSKRALKQFRLPLEETELEKRIIVDDTSTQWSKNMKHLTPSTLTQIDYNEKEKGAITQSPLSDCLTRSHSIPQANRSPLPIAKVSSFPSIRPIYLTRVLFQDNSSHLPAASYRKKDSGVQESSHFLQGAKKNNLSLAILTLEMTGDQREVGSLGTSATNSVTYKKVENTVLPKPDLPKTSGKVELLPKVHIYQKDLFPTETSNGSPGHLDLVEGSLLQGTEGAIKWNEANRPGKVPFLRVATESSAKTPSKLLDPLAWDNHYGTQIPKEEWKSQEKSPEKTAFKKKDTILSLNACESNHAIAAINEGQNKPEIEVTWAKQGRTERLCSQNPPVLKRHQR
2 | – | 130 | > 60 | > 70 | 132 | A2 subunit of factor VIII, plasma-derived (from thrombin-activated fVIII) (other, Radio-iodinated where used as tracer; also called A2 domain; plasma-derived A2) SVAKKHPKTWVHYIAAEEEDWDYAPLVLAPDDRSYKSQYLNNGPQRIGRKYKKVRFMAYTDETFKTREAIQHESGILGPLLYGEVGDTLLIIFKNQASRPYNIYPHGITDVRPLYSRRLPKGVKHLKDFPILPGEIFKYKWTVTVEDGPTKSDPRCLTRYYSSFVNMERDLASGLIGPLLICYKESVDQRGNQIMSDKRNVILFSVFDENRSWYLTENIQRFLPNPAGVQLEDPEFQASNIMHSINGYVFDSLQLSVCLHEVAYWYILSIGAQTDFLSVFFSGYTFKHKMVYEDTLTLFPFSGETVFMSMENPGLWILGCHNSDFRNRGMTALLKVSSCDKNTGDYYEDSYEDISAYLLSKNNAIEPR
